Experimental data: patent US5543312

Biological target: glycophorin A from human erythrocytes (human) (UniProt P02724)

Sequence of Pasteurella haemolytica A1 glycoprotease (enzyme from culture supernatant) (P36175 whole entry): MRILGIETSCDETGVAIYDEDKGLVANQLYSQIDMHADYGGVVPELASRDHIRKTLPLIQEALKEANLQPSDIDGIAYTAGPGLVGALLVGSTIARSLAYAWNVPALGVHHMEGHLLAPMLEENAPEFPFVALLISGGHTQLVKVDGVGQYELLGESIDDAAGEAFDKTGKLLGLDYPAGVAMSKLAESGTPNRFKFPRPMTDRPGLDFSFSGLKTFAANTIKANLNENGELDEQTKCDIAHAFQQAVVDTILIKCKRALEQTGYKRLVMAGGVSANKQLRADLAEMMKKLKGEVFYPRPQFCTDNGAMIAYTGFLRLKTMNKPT

Question: With “Pasteurella haemolytica A1 glycoprotease (enzyme from culture supernatant)” as the substance, how does the Glycoprotease Specific Activity (nmol/mg/h), cleavage of [125I]-glycophorin A read?
Answer: Its Glycoprotease Specific Activity (nmol/mg/h), cleavage of [125I]-glycophorin A is 94 nmol/mg/h.
